Experimental data from patent US20230193248A1.

T1: M15-K(biotin)-AAR (SEQ ID NO: 8) peptide
T1 chain: KAAR


What was measured:
[1] = biological target: T1, M15-K(biotin)-AAR (SEQ ID NO: 8) peptide
[2] = biological target: M15-L-P1 target polypeptide, P1 = Q
[3] = biological target: M15-L-P1 target polypeptide, P1 = V
[4] = biological target: M15-L-P1 target polypeptide, P1 = I
[5] = biological target: M15-L-P1 target polypeptide, P1 = M
[6] = biological target: M15-L-P1 target polypeptide, P1 = L
[7] = biological target: M15-L-P1 target polypeptide, P1 = A

Row | Protein | percentage of conversion to cleavage product M15-K(biotin)-A (HPLC, UV absorbance at 254 nm) [1] | cleavage of single labeled NTAA [2] | cleavage of single labeled NTAA [3] | cleavage of single labeled NTAA [4] | cleavage of single labeled NTAA [5] | cleavage of single labeled NTAA [6] | cleavage of single labeled NTAA [7]
1 | engineered dipeptidyl peptidase clone (SEQ ID NO: 11) derived from dipeptidyl peptidase from Thermomonas hydrothermalis (SEQ ID NO: 10) (protein) DEGMWVPQQLPEIAGALKKAGLKLDPKQLSDLTGDPMGAVVSLGGCTGSFVSPQGLVATNHHCAYGAIQLNSTPEKNLIKDGFNAPTQADELSAGPNARIYVLEGITDVTAQAKAAMAAAGNDPVARANALEAFEKKITSDCEAEPGYRCRVYSFMGGITYRLFKNLEIKDVRLVYAPPSSVGKFGGDIDMGMWPTHTGDFSFYRAYVGKDGKPAPYSKDNVPYRPKHWLKIADTPLGEGDFVMVAGYPGRTDRYALVAEFENTQNWLYPAISKAYKDQIALVEAAAKDNPEIAVKYAAALAGWNRTSKNFDGQLEGFKRNDVLAIKRREEAAVLEWLRARGKAGTPALEAHAALVKLVADTARTQERDLVLGSFNRTGIIGVAVNLYRLAIERQKPDAEREPGYQQRDLPVIEGSLKQMERRYVPAMDRQLRAYWLDRYVALPAAQHVAAVDAWLGGSDKAAAEAALARLDQSRLGSLEERLKWFNADRAAFEASTDPAIQYAVAVMPTLLAMEQQAKTRYGVALEARPRYLQAVVDYKKSKGQAVYPDANSTLRITYGHVKGYTGLNGKVYTPFTTLEEVAAKETGVEPFDNPKALLEAVAAKRYAGLADARLGTVPVNFLADLDITGGNSGSPVLDANGRLVGLAFAVTLESVASNWVFDPVLTRMISVDQRYMRWIMQEVMPAPQLLEELGVPPRQ | about 10% of the model peptide was converted to the cleavage product, M15-K(biotin)-A | – | – | – | – | – | –
2 | first selected modified cleavase (M15-L Z001) (protein) MHKTRLVAALAAALATLAPAAWADEGMWVPQQLPEIAGALKKAGLKLDPKQLSDLTGDPMGAVVSLGGCTGSFVSPQGLVATNHHCAYGAIQLNSTPEKNLIKDGFNAPTQADELSAGPNARIYVLEGITDVTAQAKAAMAAAGNDPVARANALEAFEKKITSDCEAEPGYRCRVYSFMGGITYRLFKNLEIKDVRLVYAPPSSVGKFGGDIDMGMWPTHTGDFSFYRAYVGKDGKPAPYSKDNVPYRPKHWLKIADTPLGEGDFVMVAGYPGRTDRYALVAEFENTQNWLYPAISKAYKDQIALVEAAAKDNPEIAVKYAAALAGWNRTSKNFDGQLEGFKRNDVLAIKRREEAAVLEWLRARGKAGTPALEAHAALVKLVADTARTQERDLVLGSFNRTGIIGVAVNLYRLAIERQKPDAEREPGYQQRDLPVIEGSLKQMERRYVPAMDRQLRAYWLDRYVALPAAQHVAAVDAWLGGSDKAAAEAALARLDQSRLGSLEERLKWFNADRAAFEASTDPAIQYAVAVMPTLLAMEQQAKTRYGVALEARPRYLQAVVDYKKSKGQAVYPDANSTLRITYGHVKGYTGLNGKVYTPFTTLEEVAAKETGVEPFDNPKALLEAVAAKRYAGLADARLGTVPVNFLADLDITGGNSGSPVLDANGRLVGLAFAGTLESVASNWVFDPVLTRMISVDQRYMRWIMQEVMPAPQLLEELGVPPRQ | – | provided 100% cleavage | provided 100% cleavage | provided 100% cleavage | provided 100% cleavage | provided 100% cleavage | provided 100% cleavage
